Reference: patent publication US20060105320A1

Molecular target: NM fibers (amyloid fibers of NM; also used sonicated as seed) (Saccharomyces cerevisiae) (UniProt P05453)
Experiment: seeded fiber elongation, sedimentation and acrylodan wavelength shift assays, Lineweaver-Burk plot

Sequence of NM fibers (amyloid fibers of NM; also used sonicated as seed) (Saccharomyces cerevisiae) (P05453 1-253): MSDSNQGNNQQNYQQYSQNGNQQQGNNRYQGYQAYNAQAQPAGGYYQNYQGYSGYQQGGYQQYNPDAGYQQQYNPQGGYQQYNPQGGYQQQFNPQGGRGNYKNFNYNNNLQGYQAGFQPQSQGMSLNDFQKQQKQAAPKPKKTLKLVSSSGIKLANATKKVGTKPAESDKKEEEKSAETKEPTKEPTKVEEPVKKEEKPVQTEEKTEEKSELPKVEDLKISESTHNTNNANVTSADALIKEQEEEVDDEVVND

NM^T158C-acrylodan (soluble) (from UniProt P05453 1-253) (other; other documents disagree on this pair)
Km: 0.12 µM
kconf/Km (conformational conversion efficiency): 42000 M⁻¹ s⁻¹
